These results are taken from article PMC11417369, “DNA sequence and chromatin differentiate sequence-specific transcription factor binding in the human malaria parasite Plasmodium falciparum”.

The target of the data set is AP2-I D3 (Plasmodium falciparum, UniProt Q8IJW6 910-1027). Kind of data set: gcPBM; about 25 ug protein; PBS, 1% milk, 0.2 mg/ml BSA, salmon testes DNA, 0.03% Triton X-100. The settings on record: tags: N-terminal GST (pGEX-4T-1), kept; label: surface-attached array probe.

B1: GTGCAC_site9852 (dsDNA)
DNA 1: ATAATATATAATATAGTGCATTATTTATTAATTAAT
DNA 2: ATTAATTAATAAATAATGCACTATATTATATATTAT
For the molecule B1, the binding signal was 12 ln median PBM intensity, better of two orientations.

B2: GTGCAC_site9607 (dsDNA)
DNA 1: TATTCAGGTCCAATGGTGCAATATATTTTTGTAATA
DNA 2: TATTACAAAAATATATTGCACCATTGGACCTGAATA
B2: the binding signal is 12 ln median PBM intensity, better of two orientations.

B3: GTGCAC_site10266 (dsDNA)
DNA 1: TCTTAAAATATATAGGTGCAAAAAAAAAAAAAAAAA
DNA 2: TTTTTTTTTTTTTTTTTGCACCTATATATTTTAAGA
As to B3, the binding signal was 10.9 ln median PBM intensity, better of two orientations.

B4: GTGCAC_site10447 (dsDNA)
DNA 1: TAATGAGCGCTTGTAGTGCATTATATTCAAAAATAT
DNA 2: ATATTTTTGAATATAATGCACTACAAGCGCTCATTA
Turning to B4, the binding signal was 12 ln median PBM intensity, better of two orientations.

B5: GTGCAC_site9926 (dsDNA)
DNA 1: GCAGCAGCATTTTCAGTGCATTATTATATTGTTCAT
DNA 2: ATGAACAATATAATAATGCACTGAAAATGCTGCTGC
For B5, the binding signal was 11.6 ln median PBM intensity, better of two orientations.

B6: GTGCAC_site9564 (dsDNA)
DNA 1: GAAAATTTAAAAAGAGTGCATTATATGTTTGAATAT
DNA 2: ATATTCAAACATATAATGCACTCTTTTTAAATTTTC
As for B6, the binding signal is 12 ln median PBM intensity, better of two orientations.

B7: GTGCAC_site10763 (dsDNA)
DNA 1: AGGATAAAAGTTATGGTGCATTAACCTATTTAAATA
DNA 2: TATTTAAATAGGTTAATGCACCATAACTTTTATCCT
As to B7, the binding signal was 12.1 ln median PBM intensity, better of two orientations.

B8: GTGCAC_site10687 (dsDNA)
DNA 1: TATATATATTATATAGTGCATTGAAGAAGGGGATTT
DNA 2: AAATCCCCTTCTTCAATGCACTATATAATATATATA
With B8, the binding signal is 11.1 ln median PBM intensity, better of two orientations.

B9: GTGCAC_site10703 (dsDNA)
DNA 1: TTTTTAATTTCAATGGTGCAGTAATAATATAATAGT
DNA 2: ACTATTATATTATTACTGCACCATTGAAATTAAAAA
As to B9, the binding signal is 12 ln median PBM intensity, better of two orientations.

B10: GTGCAC_site9995 (dsDNA)
DNA 1: AAAGGAAAAATCCAAGTGCATTATTATTTTCACAAA
DNA 2: TTTGTGAAAATAATAATGCACTTGGATTTTTCCTTT
Consider B10, for which the binding signal was 11.4 ln median PBM intensity, better of two orientations.

B11: GTGCAC_site10007 (dsDNA)
DNA 1: TTTCTTTTTTCTTCAGTGCATTAAAATTAACAAAAG
DNA 2: CTTTTGTTAATTTTAATGCACTGAAGAAAAAAGAAA
Regarding B11, the binding signal was 12 ln median PBM intensity, better of two orientations.

B12: GTGCAC_site10233 (dsDNA)
DNA 1: TTTTTTAAATTTAAAGTGCATTATTATATATTTGTA
DNA 2: TACAAATATATAATAATGCACTTTAAATTTAAAAAA
Consider B12, for which the binding signal was 12 ln median PBM intensity, better of two orientations.

B13: GTGCAC_site9417 (dsDNA)
DNA 1: TAATATTATTTTTCAGTGCAATATAACCTTAGAATT
DNA 2: AATTCTAAGGTTATATTGCACTGAAAAATAATATTA
B13: the binding signal is 11.3 ln median PBM intensity, better of two orientations.

B14: GTGCAC_site10132 (dsDNA)
DNA 1: AGTGTGTGTAATAAAGTGCATTAAAAATGACACGTA
DNA 2: TACGTGTCATTTTTAATGCACTTTATTACACACACT
Regarding B14, the binding signal is 12 ln median PBM intensity, better of two orientations.

B15: GTGCAC_site10757 (dsDNA)
DNA 1: TATTAATTTCGGGAAGTGCATTATGTTTATAGAATA
DNA 2: TATTCTATAAACATAATGCACTTCCCGAAATTAATA
Regarding B15, the binding signal was 11.7 ln median PBM intensity, better of two orientations.

B16: GTGCAC_site10028 (dsDNA)
DNA 1: ATTATAATTACTCTAGTGCATTATAAATATGAATAA
DNA 2: TTATTCATATTTATAATGCACTAGAGTAATTATAAT
Consider B16, for which the binding signal is 12 ln median PBM intensity, better of two orientations.

B17: GTGCAC_site10332 (dsDNA)
DNA 1: ATTACATTAATAAGAGTGCATTATATAAGTTTTATG
DNA 2: CATAAAACTTATATAATGCACTCTTATTAATGTAAT
As to B17, the binding signal was 12.1 ln median PBM intensity, better of two orientations.

B18: GTGCAC_site10781 (dsDNA)
DNA 1: ACATTTTTGGTTTTAGTGCAATATGAATTATTTTAT
DNA 2: ATAAAATAATTCATATTGCACTAAAACCAAAAATGT
Take B18: the binding signal is 11 ln median PBM intensity, better of two orientations.

B19: GTGCAC_site10551 (dsDNA)
DNA 1: ATATATAAAAATTAGGTGCATTAAATTAAAATATAT
DNA 2: ATATATTTTAATTTAATGCACCTAATTTTTATATAT
As to B19, the binding signal was 12 ln median PBM intensity, better of two orientations.

B20: GTGCAC_site10494 (dsDNA)
DNA 1: AATATATAGGAAAAAGTGCAATAAATGAACAAAATA
DNA 2: TATTTTGTTCATTTATTGCACTTTTTCCTATATATT
In the case of B20, the binding signal is 11.3 ln median PBM intensity, better of two orientations.

B21: GTGCAC_site10150 (dsDNA)
DNA 1: TTTCCCTCAAATAAAGTGCATTATGATTTTAATTTA
DNA 2: TAAATTAAAATCATAATGCACTTTATTTGAGGGAAA
For B21, the binding signal is 12 ln median PBM intensity, better of two orientations.

B22: GTGCAC_site10102 (dsDNA)
DNA 1: TATATTTATATATTAGTGCACTTTTTGTTAATTTTT
DNA 2: AAAAATTAACAAAAAGTGCACTAATATATAAATATA
For B22, the binding signal was 11.8 ln median PBM intensity, better of two orientations.

B23: GTGCAC_site10322 (dsDNA)
DNA 1: TTTTTTTTTTTGTGAGTGCACGTATGAAGAGAAAAA
DNA 2: TTTTTCTCTTCATACGTGCACTCACAAAAAAAAAAA
B23: the binding signal is 11.2 ln median PBM intensity, better of two orientations.

B24: GTGCAC_site10289 (dsDNA)
DNA 1: TTTAAAATACAGAAGGTGCATTTAACATATTTGTAT
DNA 2: ATACAAATATGTTAAATGCACCTTCTGTATTTTAAA
Regarding B24, the binding signal is 11.6 ln median PBM intensity, better of two orientations.

B25: GTGCAC_site9773 (dsDNA)
DNA 1: TTAAAAATTATATAAGTGCATTAATATTTAGAACAA
DNA 2: TTGTTCTAAATATTAATGCACTTATATAATTTTTAA
Regarding B25, the binding signal is 12 ln median PBM intensity, better of two orientations.

B26: GTGCAC_site9974 (dsDNA)
DNA 1: ATATGAAGTTATATAGTGCACATGTACAACCAAATC
DNA 2: GATTTGGTTGTACATGTGCACTATATAACTTCATAT
Take B26: the binding signal was 11.4 ln median PBM intensity, better of two orientations.

B27: GTGCAC_site9443 (dsDNA)
DNA 1: ACCATATATTAAAAAGTGCATTAAATATATAAATAT
DNA 2: ATATTTATATATTTAATGCACTTTTTAATATATGGT
Take B27: the binding signal is 12 ln median PBM intensity, better of two orientations.

B28: GTGCAC_site10279 (dsDNA)
DNA 1: GCCAATAAAGATGTGGTGCATTATATATATATATAT
DNA 2: ATATATATATATATAATGCACCACATCTTTATTGGC
As to B28, the binding signal was 12.1 ln median PBM intensity, better of two orientations.

B29: GTGCAC_site10697 (dsDNA)
DNA 1: AATATTTCTCATTTTGTGCACTGAAAAATGTAATAT
DNA 2: ATATTACATTTTTCAGTGCACAAAATGAGAAATATT
With B29, the binding signal is 11 ln median PBM intensity, better of two orientations.

B30: GTGCAC_site9462 (dsDNA)
DNA 1: AACTGTACAATTTTTGTGCACAATAATTATTAATAT
DNA 2: ATATTAATAATTATTGTGCACAAAAATTGTACAGTT
Turning to B30, the binding signal is 11.3 ln median PBM intensity, better of two orientations.

B31: GTGCAC_site10204 (dsDNA)
DNA 1: GGAAAATACATTCCAGTGCATTAATTTATTCAACGT
DNA 2: ACGTTGAATAAATTAATGCACTGGAATGTATTTTCC
On to B31, for which the binding signal was 11.8 ln median PBM intensity, better of two orientations.

B32: GTGCAC_site9746 (dsDNA)
DNA 1: TATAATTAATTAGAAGTGCATTAGGTAACAACTGTC
DNA 2: GACAGTTGTTACCTAATGCACTTCTAATTAATTATA
As for B32, the binding signal is 11.5 ln median PBM intensity, better of two orientations.

B33: GTGCAC_site10160 (dsDNA)
DNA 1: ATTCATTTACCAATGGTGCAATATATTTTTATAATG
DNA 2: CATTATAAAAATATATTGCACCATTGGTAAATGAAT
B33: the binding signal was 12 ln median PBM intensity, better of two orientations.

B34: GTGCAC_site10087 (dsDNA)
DNA 1: TGTCACTACAAATGAGTGCATTAAATAATTTGGAAA
DNA 2: TTTCCAAATTATTTAATGCACTCATTTGTAGTGACA
Take B34: the binding signal is 12 ln median PBM intensity, better of two orientations.

B35: GTGCAC_site9873 (dsDNA)
DNA 1: CCCTCCCCATGTTTAGTGCAAAAATATTTGAAATTG
DNA 2: CAATTTCAAATATTTTTGCACTAAACATGGGGAGGG
With B35, the binding signal is 10.9 ln median PBM intensity, better of two orientations.

B36: GTGCAC_site9970 (dsDNA)
DNA 1: ACTGTAATATTGAAAGTGCATTAAAGTGTATATTAT
DNA 2: ATAATATACACTTTAATGCACTTTCAATATTACAGT
In the case of B36, the binding signal is 12 ln median PBM intensity, better of two orientations.

B37: GTGCAC_site9803 (dsDNA)
DNA 1: GTAGTAATAAATCTAGTGCATTATATATAACAAAAA
DNA 2: TTTTTGTTATATATAATGCACTAGATTTATTACTAC
B37: the binding signal is 12 ln median PBM intensity, better of two orientations.

B38: GTGCAC_site10036 (dsDNA)
DNA 1: TCATAGGGGTAGAAGGTGCAATAAAAAAGAAGAAAA
DNA 2: TTTTCTTCTTTTTTATTGCACCTTCTACCCCTATGA
In the case of B38, the binding signal was 12 ln median PBM intensity, better of two orientations.

B39: GTGCAC_site9491 (dsDNA)
DNA 1: AATAATAAAATAAAAGTGCATTAATTATAATTCTTT
DNA 2: AAAGAATTATAATTAATGCACTTTTATTTTATTATT
In the case of B39, the binding signal is 11.9 ln median PBM intensity, better of two orientations.

B40: GTGCAC_site9463 (dsDNA)
DNA 1: ATTAAAAAATCCATAGTGCACTACGATAGGTTCCGA
DNA 2: TCGGAACCTATCGTAGTGCACTATGGATTTTTTAAT
Consider B40, for which the binding signal was 12.1 ln median PBM intensity, better of two orientations.

B41: GTGCAC_site10062 (dsDNA)
DNA 1: TCTATTTTCTTATGAATGCACTAATTTATAAAACGT
DNA 2: ACGTTTTATAAATTAGTGCATTCATAAGAAAATAGA
As to B41, the binding signal was 10.8 ln median PBM intensity, better of two orientations.

B42: GTGCAC_site10692 (dsDNA)
DNA 1: ATTATTTATATTATGGTGCATAATTTTGGGTTTCTT
DNA 2: AAGAAACCCAAAATTATGCACCATAATATAAATAAT
Regarding B42, the binding signal was 11.6 ln median PBM intensity, better of two orientations.
